# Measurements as given in patent US20240116985A1 (published 2024).
# Starred links: 1 amine or outer side, 2 acyl side, 3 side chain; linkers in the order of their positions; H or OH if unused. Positions of bridges follow the written chain, without caps; N, C: chain ends. Non-standard residues stand in square brackets, D forms with d. Primed or numbered codes have the meaning given here. PyrS2″ = (S)-3-amino-1-((pent-4-en-1-yloxy)carbonyl)pyrrolidine-3-carboxylic acid (stapling residue), C=CCCCOC(=O)N1CC[C@@](N[*:1])(C(=O)[*:2])C1; TfeGA = (S)-2-amino-3-((carboxymethyl)(2,2,2-trifluoroethyl)amino)propanoic acid, O=C([C@H](CN(CC(=O)[*:3])CC(F)(F)F)N[*:1])[*:2]; PyrS2 = (S)-3-amino-1-((pent-4-en-1-yloxy)carbonyl)pyrrolidine-3-carboxylic acid, C=CCCCOC(=O)N1CC[C@@](N[*:1])(C(=O)[*:2])C1; B5(12) = 2-amino-2-(pent-4-en-1-yl)hept-6-enoic acid (two olefin side chains), C=CCCCC(CCCC=C)(N[*:1])C(=O)[*:2]; 2COOHF = (S)-2-(2-amino-2-carboxyethyl)benzoic acid, O=C([C@H](Cc1ccccc1C(=O)[*:3])N[*:1])[*:2]; B5(3) = 2,2-bis(4-pentenyl)glycine (stitching residue), C=CCCCC(CCCC=C)(N[*:1])C(=O)[*:2]; Phe(3-COOH) = N[C@@H](Cc1cccc(C(=O)O)c1)C(=O)O; Phe(4-COOH) = N[C@@H](Cc1ccc(C(=O)O)cc1)C(=O)O; Bta = N[C@@H](Cc1csc2ccccc12)C(=O)O; αAllylPro = C=CC[C@@]1(C(=O)O)CCCN1; tBuAla = CC(C)(C)C[C@H](N)C(=O)O; 3Thi = N[C@@H](Cc1ccsc1)C(=O)O; Cit = NC(=O)NCCC[C@H](N)C(=O)O; PyrS2(4) = not defined here; TfeGA″ = not defined here
# T1: B-cat-Halo (UniProt P35222 1-781)
# T1 sequence (looked up): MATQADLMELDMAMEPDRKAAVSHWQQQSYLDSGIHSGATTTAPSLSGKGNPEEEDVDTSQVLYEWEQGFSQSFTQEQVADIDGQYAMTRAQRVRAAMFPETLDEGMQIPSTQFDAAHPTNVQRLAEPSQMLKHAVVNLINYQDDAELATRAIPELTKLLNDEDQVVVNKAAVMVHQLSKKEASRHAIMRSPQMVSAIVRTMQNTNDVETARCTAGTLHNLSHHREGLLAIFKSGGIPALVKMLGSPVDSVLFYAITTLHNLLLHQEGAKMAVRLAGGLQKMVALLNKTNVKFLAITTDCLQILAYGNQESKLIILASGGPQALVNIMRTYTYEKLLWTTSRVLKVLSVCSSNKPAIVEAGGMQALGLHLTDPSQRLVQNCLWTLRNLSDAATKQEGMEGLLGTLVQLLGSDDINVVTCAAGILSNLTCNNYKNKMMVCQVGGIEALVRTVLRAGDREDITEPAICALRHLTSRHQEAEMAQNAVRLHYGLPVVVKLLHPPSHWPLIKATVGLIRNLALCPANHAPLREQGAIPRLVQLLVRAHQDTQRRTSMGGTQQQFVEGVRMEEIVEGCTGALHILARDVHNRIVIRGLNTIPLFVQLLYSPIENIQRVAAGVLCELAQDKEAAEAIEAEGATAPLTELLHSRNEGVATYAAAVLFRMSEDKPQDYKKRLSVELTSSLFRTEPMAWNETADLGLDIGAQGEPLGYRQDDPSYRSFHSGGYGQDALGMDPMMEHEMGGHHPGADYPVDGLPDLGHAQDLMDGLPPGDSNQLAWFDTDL
# Target: T1, B-cat-Halo
# Experiment: cell-based or functional assay
row,NanoBRET Abs IC50 [µM],Binder
1,23.8,"Ac-[αAllylPro]D[tBuAla][B5(3)]DNAAFN[PyrS2″][3Thi][Bta]H-NH2 (staple 1-4, 4-11) [I-837]"
2,17.4,"Ac-[αAllylPro]D[tBuAla][B5(3)]DQAAFN[PyrS2″][3Thi][Bta]Q-NH2 (staple 1-4, 4-11) [I-838]"
3,41.9,"Ac-[αAllylPro]D[tBuAla][B5(3)]DQAAFN[PyrS2″][3Thi][Bta]H-NH2 (staple 1-4, 4-11) [I-839]"
4,22.3,"Ac-[αAllylPro]D[tBuAla][B5(3)]D[Cit]AAFN[PyrS2″][3Thi][Bta]Q-NH2 (staple 1-4, 4-11) [I-840]"
5,34.4,"Ac-[αAllylPro]D[tBuAla][B5(3)]D[Cit]AAFN[PyrS2″][3Thi][Bta]H-NH2 (staple 1-4, 4-11) [I-841]"
6,47.9,"Ac-[αAllylPro]D[tBuAla][B5(3)]DYAAFN[PyrS2″][3Thi][Bta]Q-NH2 (staple 1-4, 4-11) [I-842]"
7,> 20,"Ac-[αAllylPro]D[tBuAla][B5(3)]DLAAFN[PyrS2(4)][3Thi][Bta]H-NH2 (staple 1-4, 4-11; reading uncertain) [I-847]"
8,7,"Ac-[αAllylPro]D[tBuAla][B5(3)]D[TfeGA″]AAFF[PyrS2(4)][3Thi][Bta]Q-NH2 (staple 1-4, 4-11; reading uncertain) [I-848]"
9,3.6,"Ac-[αAllylPro]D[tBuAla][B5(3)]D[TfeGA]AAFL[PyrS2][3Thi][Bta]Q-NH2 (staple 1-4, 4-11) [I-849]"
10,16.4,"Ac-[αAllylPro]D[tBuAla][B5(3)]D[Phe(4-COOH)]AAFF[PyrS2][3Thi][Bta]Q-NH2 (staple 1-4, 4-11) [I-850]"
11,7.6,"Ac-[αAllylPro]D[tBuAla][B5(3)]D[Phe(4-COOH)]AAFL[PyrS2][3Thi][Bta]Q-NH2 (staple 1-4, 4-11) [I-851]"
12,2.8,"Ac-[αAllylPro]D[tBuAla][B5(3)]D[Phe(3-COOH)]AAFF[PyrS2][3Thi][Bta]Q-NH2 (staple 1-4, 4-11) [I-852]"
13,3.6,"Ac-[αAllylPro]D[tBuAla][B5(12)]D[2COOHF]AAFL[PyrS2][3Thi][Bta]Q-NH2 (staple 1-4, 4-11) [I-854]"
14,6.8,"Ac-[αAllylPro]D[tBuAla][B5(12)]DNAAFL[PyrS2][3Thi][Bta]Q-NH2 (staple 1-4, 4-11) [I-856]"
